Laboratory results from patent US20160046711A1 (Novartis, published 2016).
Like-named read-outs stand apart in the source and are kept apart here.

Key:
[1] = biological target: T1, human CDH6 expressed on cells (human, UniProt P55285 54-790); assay: FACS histogram on OVCAR3 cells
T1 sequence: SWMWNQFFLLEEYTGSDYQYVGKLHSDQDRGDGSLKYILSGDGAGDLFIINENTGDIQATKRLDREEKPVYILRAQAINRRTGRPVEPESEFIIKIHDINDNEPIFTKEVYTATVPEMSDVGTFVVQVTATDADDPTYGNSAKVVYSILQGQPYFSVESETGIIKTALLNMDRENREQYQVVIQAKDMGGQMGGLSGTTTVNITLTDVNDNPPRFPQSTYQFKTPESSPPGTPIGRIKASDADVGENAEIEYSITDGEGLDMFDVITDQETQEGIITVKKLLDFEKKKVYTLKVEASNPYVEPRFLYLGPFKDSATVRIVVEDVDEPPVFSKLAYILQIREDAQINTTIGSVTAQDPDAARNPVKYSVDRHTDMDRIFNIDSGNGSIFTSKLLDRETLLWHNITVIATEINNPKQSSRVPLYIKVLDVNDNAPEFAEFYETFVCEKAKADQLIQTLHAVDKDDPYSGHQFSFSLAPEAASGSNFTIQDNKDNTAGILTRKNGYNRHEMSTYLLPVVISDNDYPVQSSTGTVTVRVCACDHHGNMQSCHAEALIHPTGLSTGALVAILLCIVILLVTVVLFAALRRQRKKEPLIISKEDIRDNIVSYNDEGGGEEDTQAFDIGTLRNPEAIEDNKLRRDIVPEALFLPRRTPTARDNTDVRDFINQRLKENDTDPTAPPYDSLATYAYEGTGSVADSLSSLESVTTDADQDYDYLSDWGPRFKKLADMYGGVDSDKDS

[2] = biological target: T1, human CDH6 expressed on cells; assay: FACS histogram on OVCAR8-CDH6+ cells
CDH6-N573A [3] = biological target: T2, CDH6-N573A (human, UniProt P55285 54-615); assay: ELISA on coated CDH6-N573A, O.D.
T2 sequence: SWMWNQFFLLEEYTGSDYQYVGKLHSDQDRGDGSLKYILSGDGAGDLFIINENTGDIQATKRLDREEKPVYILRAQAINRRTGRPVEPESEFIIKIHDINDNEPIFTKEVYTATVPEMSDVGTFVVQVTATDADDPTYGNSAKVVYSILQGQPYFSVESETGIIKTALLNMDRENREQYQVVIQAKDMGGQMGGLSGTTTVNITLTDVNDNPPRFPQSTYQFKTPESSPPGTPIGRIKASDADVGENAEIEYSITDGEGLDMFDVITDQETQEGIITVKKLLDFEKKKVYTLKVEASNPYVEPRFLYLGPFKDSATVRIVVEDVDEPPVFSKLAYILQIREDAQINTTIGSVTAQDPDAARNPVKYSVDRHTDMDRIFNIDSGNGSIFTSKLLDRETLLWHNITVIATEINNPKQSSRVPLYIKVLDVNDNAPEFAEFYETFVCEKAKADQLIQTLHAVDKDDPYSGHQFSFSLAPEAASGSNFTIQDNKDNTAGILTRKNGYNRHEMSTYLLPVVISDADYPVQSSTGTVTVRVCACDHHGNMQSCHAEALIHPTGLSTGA

CDH6 wt [4] = biological target: T3, CDH6 wt (human, UniProt P55285 54-615, limits assumed); assay: ELISA on coated CDH6-wt, O.D.
T3 sequence: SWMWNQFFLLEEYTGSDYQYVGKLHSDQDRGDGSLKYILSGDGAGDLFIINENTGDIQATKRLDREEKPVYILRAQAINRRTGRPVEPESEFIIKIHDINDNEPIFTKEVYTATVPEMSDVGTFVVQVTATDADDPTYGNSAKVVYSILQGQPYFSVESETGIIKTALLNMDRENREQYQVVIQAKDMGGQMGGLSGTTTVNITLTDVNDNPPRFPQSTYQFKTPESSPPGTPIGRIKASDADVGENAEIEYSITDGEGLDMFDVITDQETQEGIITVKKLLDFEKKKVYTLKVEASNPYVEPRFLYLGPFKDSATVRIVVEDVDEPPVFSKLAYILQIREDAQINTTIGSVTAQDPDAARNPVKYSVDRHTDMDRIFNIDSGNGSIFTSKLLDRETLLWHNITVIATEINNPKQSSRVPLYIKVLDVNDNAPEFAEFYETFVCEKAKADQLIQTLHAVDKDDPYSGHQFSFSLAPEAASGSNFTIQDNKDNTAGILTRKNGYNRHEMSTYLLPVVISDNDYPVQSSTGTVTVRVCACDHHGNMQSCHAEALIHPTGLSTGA

CDH6 wt [5] = biological target: T3, CDH6 wt; assay: ELISA on coated CDH6-wt, O.D.; remark: listed apart in the source
CDH6-D574A [6] = biological target: T4, CDH6-D574A (human, UniProt P55285 54-615); assay: ELISA on coated CDH6-D574A, O.D.
T4 sequence: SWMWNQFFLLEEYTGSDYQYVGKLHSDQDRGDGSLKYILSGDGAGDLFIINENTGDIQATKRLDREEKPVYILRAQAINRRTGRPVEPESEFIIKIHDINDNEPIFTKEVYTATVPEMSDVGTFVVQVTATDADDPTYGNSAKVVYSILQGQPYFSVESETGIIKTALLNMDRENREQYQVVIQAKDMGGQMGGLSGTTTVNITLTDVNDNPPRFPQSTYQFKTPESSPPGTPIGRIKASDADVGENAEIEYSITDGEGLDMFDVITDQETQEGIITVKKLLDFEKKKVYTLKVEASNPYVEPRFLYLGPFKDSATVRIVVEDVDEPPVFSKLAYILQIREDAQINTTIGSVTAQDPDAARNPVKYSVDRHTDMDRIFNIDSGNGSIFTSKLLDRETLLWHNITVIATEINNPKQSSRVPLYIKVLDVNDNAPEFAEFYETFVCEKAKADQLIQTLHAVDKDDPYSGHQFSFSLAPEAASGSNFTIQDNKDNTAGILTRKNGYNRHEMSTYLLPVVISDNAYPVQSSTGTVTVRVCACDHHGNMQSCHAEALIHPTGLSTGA

CDH6-Y575A [7] = biological target: T5, CDH6-Y575A (human, UniProt P55285 54-615); assay: ELISA on coated CDH6-Y575A, O.D.
T5 sequence: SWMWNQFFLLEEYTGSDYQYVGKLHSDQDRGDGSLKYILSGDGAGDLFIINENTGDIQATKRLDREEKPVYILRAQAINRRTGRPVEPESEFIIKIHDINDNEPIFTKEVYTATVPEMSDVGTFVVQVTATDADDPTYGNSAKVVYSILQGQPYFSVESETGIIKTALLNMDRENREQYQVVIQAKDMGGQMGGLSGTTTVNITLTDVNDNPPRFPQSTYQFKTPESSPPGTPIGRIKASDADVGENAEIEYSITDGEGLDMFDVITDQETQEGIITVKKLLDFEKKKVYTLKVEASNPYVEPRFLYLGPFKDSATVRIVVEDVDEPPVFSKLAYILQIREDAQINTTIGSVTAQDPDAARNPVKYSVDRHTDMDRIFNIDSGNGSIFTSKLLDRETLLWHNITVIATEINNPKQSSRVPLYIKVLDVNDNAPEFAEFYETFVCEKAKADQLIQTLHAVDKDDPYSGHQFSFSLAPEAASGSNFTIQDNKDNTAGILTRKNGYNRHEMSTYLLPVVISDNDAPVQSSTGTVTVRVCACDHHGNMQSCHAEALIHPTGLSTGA

CDH6-N573A [8] = biological target: T2, CDH6-N573A; assay: ELISA on coated CDH6-N573A, O.D.; remark: listed apart in the source
CDH6-N573A [9] = biological target: T2, CDH6-N573A; assay: ELISA on coated CDH6-N573A, O.D.; remark: listed apart in the source
CDH6-D574A [10] = biological target: T4, CDH6-D574A; assay: ELISA on coated CDH6-D574A, O.D.; remark: listed apart in the source
CDH6-Y575A [11] = biological target: T5, CDH6-Y575A; assay: ELISA on coated CDH6-Y575A, O.D.; remark: listed apart in the source
CDH6 wt [12] = biological target: T3, CDH6 wt; assay: ELISA on coated CDH6-wt, O.D.; remark: listed apart in the source

human isotype control IgG (antibody)
Geom. Mean Fluorescence [1]: 57.9
Geom. Mean Fluorescence [2]: 54.2
EC50 (CDH6-N573A [3]): 0.545 µM
EC50 (CDH6 wt [4]): 0.3 µM

non-binding control ADC (antibody)
Geom. Mean Fluorescence [1]: 60.4
Geom. Mean Fluorescence [2]: 56.5

B1: NOV0720 (antibody, human IgG1, lambda, V domains shown)
VH: QVQLQQSGPGLVKPSQTLSLTCAISGDSVSSNSAGWNWIRQSPSRGLEWLGRIYYRSKWYNDYAVSVKSRITINPDTSKNQFSLQLNSVTPEDTAVYYCAREKYTVSFYDFFDYWGQGTLVTVSS
VL: DIELTQPPSVSVSPGQTASITCSGDNIGSMTAHWYQQKPGQAPVLVIYDKNERPSGIPERFSGSNSGNTATLTISGTQAEDEADYYCQSWDDSYNSVVFGGGTKLTVLG
EC50 (CDH6 wt [5]): 7.11 µM
EC50 (CDH6-D574A [6]): 7.58 µM
EC50 (CDH6-Y575A [7]): 7.2 µM
EC50 (CDH6-N573A [8]): 6.74 µM

B2: NOV0710 (antibody, human IgG1, kappa, V domains shown)
VH: QVQLLESGGGLVQPGGSLRLSCAASGFTFSSYAMSWVRQAPGKGLEWVSVIRSSGSSTYYADSVKGRFTISRDNSKNTLYLQMNSLRAEDTAVYYCARGGGYFDYWGQGTLVTVSS
VL: DIQMTQSPSSLSASVGDRVTITCRASQSISLWLNWYQQKPGKAPKLLIYAASTLQSGVPSRFSGSGSGTDFTLTISSLQPEDFATYYCQQYYTSPYTFGQGTKVEIKR
EC50 (CDH6-N573A [9]): 459 µM
EC50 (CDH6-D574A [10]): 151 µM
EC50 (CDH6-Y575A [11]): 0.287 µM
EC50 (CDH6 wt [12]): 0.2 µM
